Experimental data taken from patent publication US20210069342A1 (LEGOCHEM BIOSCIENCES, published 2021).

What was measured:
[1] = biological target: T1, recombinant human ROR1-His (Sino Biological, 13968-H08H) (human, UniProt Q01973 30-406); assay: BLI (Octet), ROR1-His on Anti-Penta-His or AR2G biosensor, IgG 30 to 0.021 nM, 1:1 fit
T1 construct: extracellular domain; Bought protein; also called ROR1-HIS protein; not shown: His tag
Method: A 96-well black microplate (greiner bio one) was mounted on a biosensor tray case, and 200 10×KB or DW was added to each of 8 wells. Then Anti Penta His biosensors or 8 AR2G biosensors (ForteBio, USA) were inserted to hydrate for 10 minutes. 600 of the assay samples were diluted 2-fold or 3-fold to the appropriate assay concentrations, using 1×KB or 10×KB to 30 to 0.021 nM. To immobilize the antigen, recombinant human ROR1-His (Sino Biological, 13968-H08H) was diluted to 1 /ML with 10×KB or Sodium Acetate pH5 buffer. Immobilization was fixed at a threshold of 0.3 nm in the loading step. The association assay was carried out for 3 to 10 minutes, and the dissociation assay was carried out for 20 minutes. According to the Octet program template, the buffer was placed in a new 96-well black microplate according to order. As Baseline1, 200 10×KB or DW was placed. Then 200 each of 1 /mL of the antigen to be loaded, the ROR1-HIS protein, was added. As Baseline2, 200 10×KB or 1×KB was placed. Then to each well 30 to 0.021 nM of the diluted antibody and 200 each of 10×KB buffer or 1×KB corresponding to a reference blank was added. The temperature of the test plate was fixed at 30° C. After all of the samples were introduced, the equipment was started, and after the assay was completed, results were uploaded to the Octet Analysis 90 software, with KD values analyzed through 1:1 fitting. By obtaining KD values through the Octet assay method, it was confirmed that the anti-ROR1 antibody had strong binding potential to ROR1 antigen.

[2] = biological target: T2, human ROR1 expressed on the cell surface (human, UniProt Q01973 30-937); assay: flow cytometry on HCT116 cells (colon cancer), C2E3 IgG, FITC anti-human Fc detection
T2 construct: whole, on cells; also called cell surface-expressed ROR1 antigen; ROR1 on JeKo-1, Mino, CHO-human ROR1, MC38-human ROR1 and other cancer cell lines
T2 sequence (Q01973 30-937): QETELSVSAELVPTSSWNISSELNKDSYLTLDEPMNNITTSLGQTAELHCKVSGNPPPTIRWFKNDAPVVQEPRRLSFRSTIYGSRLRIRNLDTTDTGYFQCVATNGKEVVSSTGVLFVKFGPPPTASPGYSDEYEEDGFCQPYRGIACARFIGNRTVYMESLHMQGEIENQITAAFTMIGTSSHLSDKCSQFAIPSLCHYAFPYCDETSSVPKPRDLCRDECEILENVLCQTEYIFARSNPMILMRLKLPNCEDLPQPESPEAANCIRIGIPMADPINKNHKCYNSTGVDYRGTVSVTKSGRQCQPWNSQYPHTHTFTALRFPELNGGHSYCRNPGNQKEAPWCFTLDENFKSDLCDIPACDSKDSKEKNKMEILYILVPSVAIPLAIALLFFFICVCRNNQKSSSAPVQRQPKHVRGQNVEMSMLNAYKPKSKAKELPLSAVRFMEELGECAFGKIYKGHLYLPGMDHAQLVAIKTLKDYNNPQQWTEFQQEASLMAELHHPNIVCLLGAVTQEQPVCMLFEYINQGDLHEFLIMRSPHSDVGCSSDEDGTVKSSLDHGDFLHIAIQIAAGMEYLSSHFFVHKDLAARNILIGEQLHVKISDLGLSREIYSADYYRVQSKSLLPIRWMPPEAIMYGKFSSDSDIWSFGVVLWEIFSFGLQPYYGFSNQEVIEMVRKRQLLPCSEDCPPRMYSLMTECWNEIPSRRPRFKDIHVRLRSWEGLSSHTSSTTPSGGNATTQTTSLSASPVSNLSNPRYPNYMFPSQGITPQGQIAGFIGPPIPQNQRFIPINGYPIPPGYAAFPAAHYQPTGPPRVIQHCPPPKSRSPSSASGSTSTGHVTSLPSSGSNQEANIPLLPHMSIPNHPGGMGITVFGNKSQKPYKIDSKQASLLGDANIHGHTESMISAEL
Method: (§1) FACS analysis (FACSCalibur, BD Biosciences) was used to analyze the binding of the anti-ROR1 antibody of the present invention to ROR1 in the above cell lines.
(§2) Specifically, the respective cell lines were dissociated and washed in PBS, then the numbers of cells were counted and adjusted to 2×10⁵ cells/200 PBS. Then, they were treated with 10 /mL of the antibody of clone name C2E3 of the ROR1 monoclonal antibodies prepared in Embodiment 3, and reacted for 1 hour at 4° C. After the reaction, the cells were washed in PBS, then FITC-marked constant region (Fc) specific antibody (Goat anti-human IgG FITC conjugate, Fc specific, Sigma, F9512, concentration 20 mg/ml) was suspended in 2 /1×10⁵ cells/200 PBS and reacted for 1 hour at 4° C. After reacting, the cells were washed with PBS and analyzed with the FACSCalibur equipment. The negative control was only treated with FITC-marked constant region (Fc) specific antibody. To compare the degree of ROR1 expression among the respective cancer cell lines, the quotient of dividing the shifted readings for the experimental group treated with the ROR1 monoclonal antibody (C2E3) of the present invention by the shifted readings for the control group (MFI Ratio: MFI of anti-ROR1/MFI or 2nd Ab) is indicated.

[3] = biological target: T2, human ROR1 expressed on the cell surface; assay: flow cytometry on SNU-16 cells (gastric cancer), C2E3 IgG, FITC anti-human Fc detection
Method: as §1, §2

[4] = biological target: T2, human ROR1 expressed on the cell surface; assay: flow cytometry on MDA-MB-231 cells (breast cancer), C2E3 IgG, FITC anti-human Fc detection
Method: as §1, §2

[5] = biological target: T2, human ROR1 expressed on the cell surface; assay: flow cytometry on MDA-MB-468 cells (breast cancer), C2E3 IgG, FITC anti-human Fc detection
Method: as §1, §2

[6] = biological target: T3, recombinant mouse ROR1 protein (Acrobiosystems, RO1-M5221) (mouse, UniProt Q9Z139 30-403); assay: ELISA, wells coated with recombinant mouse ROR1 protein, IgG titrated, HRP anti-Fab detection, OD (450-650nm)
T3 construct: Bought protein; also called mouse ROR1 antigen
T3 sequence (Q9Z139 30-403 limits assumed): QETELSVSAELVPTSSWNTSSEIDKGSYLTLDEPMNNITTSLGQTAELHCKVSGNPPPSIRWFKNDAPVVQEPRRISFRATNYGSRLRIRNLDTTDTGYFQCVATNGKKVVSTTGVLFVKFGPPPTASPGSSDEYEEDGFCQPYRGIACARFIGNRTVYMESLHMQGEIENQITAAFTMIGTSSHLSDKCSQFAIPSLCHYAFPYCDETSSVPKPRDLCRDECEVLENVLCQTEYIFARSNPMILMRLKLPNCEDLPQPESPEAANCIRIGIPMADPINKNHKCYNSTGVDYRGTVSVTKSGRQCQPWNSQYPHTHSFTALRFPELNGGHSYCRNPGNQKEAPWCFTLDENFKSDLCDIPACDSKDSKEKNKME
Method: (§3) Anti-ROR1 antibody antigen binding affinity was assessed using an ELISA-based solution binding assay. Specifically, a 96-well microtiter plate (Nunc-Immuno Plates), NUNC) was coated for 16 hours at 4° C. with the ROR1 protein described below at a concentration of 1 in PBS solution, and non-specific binding sites were blocked for 2 hours with 3% BSA (bovine serum albumin). Here, the ROR1 protein used was, in the case of human ROR1, the ROR1-Fc or recombinant human ROR1-His (Sino Biological, 13968-H08H) of Embodiment 1. The ROR1-His used in ELISA, as stated in the above sentence, was a protein from the Sino Biological company (13968-H08H), and the ROR1-His of Embodiment 1 or recombinant mouse ROR1 protein was used (Acrobiosystems, RO1-M5221-100 )
(§4) Subsequently, the anti-ROR1 antibodies prepared in Embodiment 3 were added at the concentrations stated in FIG. 2 to a 96-well microtiter plate, and binding capacity was analyzed using ELISA as follows. Specifically, after incubating for 2 hours, the plate was washed 5 times with PBS containing 0.05% Tween 20, then HRP-conjugated Fab multiclonal antibody reagent (Perce, 31414) was diluted to 1:10,000 and placed in the washed microtiter plate. After reacting for 1 hour at 37° C., the ROR1 antibodies bonded to the plate were detected. After the reaction, color development was performed using TMB (Tetramethylbenzidine, Sigma, T0440). The enzymatic reaction was stopped using 0.5 mol/L sulfuric acid, and absorbance at 450 nm and 650 nm was measured (450 nm-650 nm) using a micro plate reader (Molecular Device)

[7] = biological target: T2, human ROR1 expressed on the cell surface; assay: flow cytometry on MCF7 cells (breast cancer; the text calls MCF7 a cell line which does not express ROR1), C2E3 IgG, FITC anti-human Fc detection
Method: as §1, §2

[8] = biological target: T1, recombinant human ROR1-His (Sino …); assay: ELISA, wells coated with human ROR1 protein (sheet: 'human ROR1'; text: ROR1-Fc or ROR1-His), IgG titrated, HRP anti-Fab detection, OD (450-650nm)
Method: as §3, §4

T1 sequence (Q01973 30-406): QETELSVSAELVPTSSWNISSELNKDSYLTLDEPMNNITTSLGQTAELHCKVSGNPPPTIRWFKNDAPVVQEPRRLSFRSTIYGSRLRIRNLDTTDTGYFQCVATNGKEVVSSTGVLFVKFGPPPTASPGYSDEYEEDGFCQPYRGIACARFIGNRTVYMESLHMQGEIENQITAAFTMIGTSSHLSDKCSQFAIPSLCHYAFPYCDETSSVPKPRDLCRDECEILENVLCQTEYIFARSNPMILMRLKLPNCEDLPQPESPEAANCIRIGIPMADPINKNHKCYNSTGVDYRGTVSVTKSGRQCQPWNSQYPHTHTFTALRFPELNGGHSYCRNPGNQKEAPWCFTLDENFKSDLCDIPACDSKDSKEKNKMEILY

kon [1]: 5.46e+06 M⁻¹ s⁻¹
Mean Fold Ratio (MFI of anti-ROR1 / MFI of 2nd Ab) [2]: 18
Mean Fold Ratio (MFI of anti-ROR1 / MFI of 2nd Ab) [3]: 2.4
Mean Fold Ratio (MFI of anti-ROR1 / MFI of 2nd Ab) [4]: 8.8
Mean Fold Ratio (MFI of anti-ROR1 / MFI of 2nd Ab) [5]: 6.4
EC50 (read off the curve) [6]: ~300 pM
Mean Fold Ratio (MFI of anti-ROR1 / MFI of 2nd Ab) [7]: 1.1
EC50 (read off the curve) [8]: ~200 pM
B1: anti-ROR1 IgG antibody C2E3 (antibody, V domains shown)
VH: EVQLLESGGGLVQPGGSLRLSCAASGFTFSNYAMSWVRQAPGKGLEWVSSISHNSGSTYYADSVKGRFTISRDNSKNTLYLQMNSLRAEDTAVYYCAKFISARKSLGRSYSNGMDVWGQGTLVTVSS
VL: QSVLTQPPSASGTPGQRVTISCTGSSSNIGSNDVTWYQQLPGTAPKLLIYADSKRPSGVPDRFSGSKSGTSASLAISGLRSEDEADYYCGTWDYSLSGYVFGGGTKLTVLG
notes: Full IgG form (human IgG1 constant region, lambda light chain), expressed in CHO-S cells
